# Results: paper PMC5714204
# T1: RNase R Δ3H (Escherichia coli BL21(DE3), UniProt P21499 1-813, del487-545)
# T1 sequence: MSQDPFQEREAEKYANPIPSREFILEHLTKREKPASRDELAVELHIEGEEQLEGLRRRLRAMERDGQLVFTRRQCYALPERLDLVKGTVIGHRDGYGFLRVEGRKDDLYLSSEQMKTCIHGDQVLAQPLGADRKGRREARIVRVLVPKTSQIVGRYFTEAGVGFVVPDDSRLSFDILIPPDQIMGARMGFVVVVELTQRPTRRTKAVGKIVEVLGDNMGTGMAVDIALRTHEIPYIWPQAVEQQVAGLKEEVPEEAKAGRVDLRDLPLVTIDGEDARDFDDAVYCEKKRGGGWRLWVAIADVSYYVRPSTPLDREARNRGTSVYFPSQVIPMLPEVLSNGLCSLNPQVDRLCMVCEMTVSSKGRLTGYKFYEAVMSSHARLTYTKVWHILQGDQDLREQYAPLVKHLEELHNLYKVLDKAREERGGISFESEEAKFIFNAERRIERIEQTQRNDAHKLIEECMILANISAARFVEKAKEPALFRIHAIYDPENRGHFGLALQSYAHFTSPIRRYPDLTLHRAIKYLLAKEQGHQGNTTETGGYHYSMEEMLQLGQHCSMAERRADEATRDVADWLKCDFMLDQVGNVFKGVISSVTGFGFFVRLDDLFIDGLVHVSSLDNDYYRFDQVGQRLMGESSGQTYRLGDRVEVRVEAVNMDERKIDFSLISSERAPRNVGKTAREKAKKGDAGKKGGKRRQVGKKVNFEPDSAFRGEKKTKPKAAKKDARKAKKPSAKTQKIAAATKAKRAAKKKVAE
# T2: RNase R (full-length) (Escherichia coli BL21(DE3), UniProt P21499 1-813)
# T2 sequence: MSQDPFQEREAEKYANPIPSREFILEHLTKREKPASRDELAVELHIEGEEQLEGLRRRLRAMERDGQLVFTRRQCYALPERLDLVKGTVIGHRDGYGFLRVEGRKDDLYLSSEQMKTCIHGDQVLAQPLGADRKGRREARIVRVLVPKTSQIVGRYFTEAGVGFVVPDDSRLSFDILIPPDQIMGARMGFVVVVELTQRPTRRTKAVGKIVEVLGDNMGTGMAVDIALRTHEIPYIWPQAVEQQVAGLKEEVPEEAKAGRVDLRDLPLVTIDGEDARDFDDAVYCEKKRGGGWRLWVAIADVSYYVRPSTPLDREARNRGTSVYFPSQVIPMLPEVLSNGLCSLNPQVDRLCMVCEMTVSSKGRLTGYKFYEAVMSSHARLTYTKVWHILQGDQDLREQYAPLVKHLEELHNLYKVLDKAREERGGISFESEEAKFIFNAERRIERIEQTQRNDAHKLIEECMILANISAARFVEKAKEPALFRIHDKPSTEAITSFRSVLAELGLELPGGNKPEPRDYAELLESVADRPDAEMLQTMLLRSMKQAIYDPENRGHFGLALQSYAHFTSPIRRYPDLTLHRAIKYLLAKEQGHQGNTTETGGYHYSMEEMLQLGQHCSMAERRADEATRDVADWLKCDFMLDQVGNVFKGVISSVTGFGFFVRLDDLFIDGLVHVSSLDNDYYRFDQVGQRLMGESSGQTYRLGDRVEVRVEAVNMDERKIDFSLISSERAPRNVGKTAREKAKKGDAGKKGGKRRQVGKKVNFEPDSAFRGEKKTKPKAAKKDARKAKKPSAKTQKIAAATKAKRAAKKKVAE
# T3: RNase R ΔHTH-K (Escherichia coli BL21(DE3), UniProt P21499 87-725)
# T3 sequence: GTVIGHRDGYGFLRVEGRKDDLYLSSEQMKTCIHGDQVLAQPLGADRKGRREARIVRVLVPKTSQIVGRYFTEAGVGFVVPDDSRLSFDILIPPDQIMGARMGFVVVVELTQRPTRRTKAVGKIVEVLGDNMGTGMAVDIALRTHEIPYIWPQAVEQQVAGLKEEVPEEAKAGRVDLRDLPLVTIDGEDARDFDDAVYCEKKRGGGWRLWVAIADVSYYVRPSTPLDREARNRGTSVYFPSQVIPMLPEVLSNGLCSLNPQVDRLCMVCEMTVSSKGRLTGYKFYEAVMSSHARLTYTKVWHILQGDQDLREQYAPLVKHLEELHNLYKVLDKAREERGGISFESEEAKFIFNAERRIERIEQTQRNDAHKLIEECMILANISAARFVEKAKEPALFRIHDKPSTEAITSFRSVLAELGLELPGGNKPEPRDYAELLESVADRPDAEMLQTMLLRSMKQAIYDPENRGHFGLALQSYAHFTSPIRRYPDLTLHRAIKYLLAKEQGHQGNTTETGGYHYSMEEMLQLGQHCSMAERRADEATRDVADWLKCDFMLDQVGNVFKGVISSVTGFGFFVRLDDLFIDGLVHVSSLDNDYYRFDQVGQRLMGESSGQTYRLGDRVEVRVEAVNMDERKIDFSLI
# T4: RNase R 1H (Escherichia coli BL21(DE3), UniProt P21499 1-523+=AQPTGFLDSRIRRFQS+545-813, internal_change)
# T4 sequence: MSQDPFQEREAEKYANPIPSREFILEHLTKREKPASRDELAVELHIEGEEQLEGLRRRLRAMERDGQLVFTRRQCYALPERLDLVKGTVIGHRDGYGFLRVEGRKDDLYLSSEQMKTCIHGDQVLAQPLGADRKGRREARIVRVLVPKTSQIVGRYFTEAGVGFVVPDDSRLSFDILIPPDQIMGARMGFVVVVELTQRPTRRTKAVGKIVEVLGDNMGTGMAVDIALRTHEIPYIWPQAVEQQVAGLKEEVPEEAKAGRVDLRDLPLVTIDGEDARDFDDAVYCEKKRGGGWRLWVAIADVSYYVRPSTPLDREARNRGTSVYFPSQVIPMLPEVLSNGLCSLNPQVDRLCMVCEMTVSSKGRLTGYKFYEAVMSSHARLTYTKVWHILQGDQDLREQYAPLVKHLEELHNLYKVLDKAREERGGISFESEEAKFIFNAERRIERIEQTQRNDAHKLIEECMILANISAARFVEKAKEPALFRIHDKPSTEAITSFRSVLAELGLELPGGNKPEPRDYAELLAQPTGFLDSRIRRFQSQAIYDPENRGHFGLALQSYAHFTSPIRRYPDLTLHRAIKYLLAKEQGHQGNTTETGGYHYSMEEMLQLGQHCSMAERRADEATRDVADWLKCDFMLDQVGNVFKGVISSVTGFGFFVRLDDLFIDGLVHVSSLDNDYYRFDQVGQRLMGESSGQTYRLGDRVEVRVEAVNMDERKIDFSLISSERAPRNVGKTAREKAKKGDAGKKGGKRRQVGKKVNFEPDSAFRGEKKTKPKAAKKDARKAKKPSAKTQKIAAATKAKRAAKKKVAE
# Key:
# Experiment in all cases: fluorescence polarization
# RNase R Δ3H = biological target: T1, RNase R Δ3H
# RNase R (full-length) = biological target: T2, RNase R (full-length)
# RNase R ΔHTH-K = biological target: T3, RNase R ΔHTH-K
# RNase R 1H = biological target: T4, RNase R 1H
binder,measurement,setting,value
AAAAAAAAAAAAAAAAAAAAAAAAAAAAAA (ssRNA) [Cy3-poly(A)30 ssRNA],Kd,RNase R Δ3H,23.8 ± 2.6 nM
same,Kd,RNase R (full-length),11.2 ± 1.2 nM
same,Kd,RNase R ΔHTH-K,8.6 ± 1 nM
same,Kd,RNase R 1H,9.9 ± 1 nM
